The text below walks through data of paper PMC6155276.

The target of this assay is Mycobacterium tuberculosis type-I fatty acid synthase (FAS-I) (Mycobacterium tuberculosis). The experiment in a line: […] (100 mM potassium phosphate pH 7.2, 150 mM KCl, 1 mM TCEP, 1 mM EDTA) […].

Regarding “Mycobacterium tuberculosis type-I fatty acid synthase (FAS-I) (enzyme)”, the stoichiometry N was 6.

For orientation: stoichiometry N means a count of units in the complex or per binding partner.
